Results as given in patent US20110171215A1 (ISIS INNOVATION, published 2011).
Each block holds one binder with its values, some of them ahead of it.

How the values were obtained:
[1] = target: T1, human PD-1 extracellular region / murine CD28 chimera, mutant L16R, on HEK-293T cells (human; mouse, UniProt Q15116 25-170; P31041 151-218, L16R); experiment: flow cytometry on transfected HEK-293T cells
T1 construct: extracellular domain;domain: transmembrane and intracellular regions; Single-residue 'drastic' mutant of m4; constructs elsewhere are counted on the mature polypeptide
Method: (§1) Constructs encoding the human extracellular region of PD-1 with the transmembrane and intracellular regions of murine CD28 were cloned into the bi-cistronic mammalian expression vector pGFP2-n2 from BioSignal Packard Ltd, which also encodes GFP. Mutant constructs varying by one amino acid were prepared using the “drastic” mutagenesis approach (Davis el al. Proc Natl Acad Sci USA. 95, 5490-4 (1998)). Plasmids (2 μg/well) were transfected into HEK-293T cells in 6 well plates using Genejuice transfection reagent (Novagen; 6 μl/well). Mock and no-transfection controls were included with each experiment. Cells were harvested at 18-24 hours and stained with anti-PD1 antibodies or isotype controls at 10 μg/ml in PBS-azide for 1 h at 4° C. Cells were washed with PBS-Azide, pelleted at 1500 rpm/5 min and primary antibodies were labelled with Alexa647-conjugated donkey anti-mouse IgG (5 μg/ml) in PBS-Azide for 30 min at 4° C. Cells were washed as above and resuspended in 200 μl PBS-Azide before being analysed at the flow cytometer. Propidium iodide (5 μg/ml) was added immediately prior to analysis to identify dead cells. GFP-positive (transfected) viable cells were gated and analysed for binding of anti-PD1 antibodies. […]

[2] = target: T2, human PD-1 extracellular region / murine CD28 chimera, mutant R118D, on HEK-293T cells (human; mouse, UniProt Q15116 25-170; P31041 151-218, R118D); experiment: flow cytometry on transfected HEK-293T cells
T2 construct: extracellular domain;domain: transmembrane and intracellular regions; Single-residue 'drastic' mutant of m4
Method: as §1

[3] = target: T3, human PD-1 extracellular region with the transmembrane and intracellular regions of murine CD28, expressed on … (human; mouse, UniProt Q15116 25-170; P31041 151-218, limits assumed); experiment: flow cytometry on transfected HEK 293T cells
T3 construct: extracellular domain;domain: transmembrane and intracellular regions; also called human PD-1 transfectants
Method: as §1

T1 sequence (Q15116 other isoform, or with tags, fused parts or gaps L16R | L16R L16R): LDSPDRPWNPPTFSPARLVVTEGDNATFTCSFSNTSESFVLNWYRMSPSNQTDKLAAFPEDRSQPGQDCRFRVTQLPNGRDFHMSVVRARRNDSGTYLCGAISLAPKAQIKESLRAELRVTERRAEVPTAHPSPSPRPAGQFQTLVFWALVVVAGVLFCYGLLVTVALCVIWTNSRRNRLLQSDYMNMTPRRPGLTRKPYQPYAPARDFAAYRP
T3 sequence (Q15116 other isoform, or with tags, fused parts or gaps limits assumed, change not shown): as the sequence (Q15116 other isoform, or with tags, fused parts or gaps L16R | L16R L16R) above, with R17L counted along it
T2 sequence (Q15116 other isoform, or with tags, fused parts or gaps R118D | R118D R118D): as the sequence (Q15116 other isoform, or with tags, fused parts or gaps L16R | L16R L16R) above, with R17L, R119D counted along it

binding result [1]: no binding (tested: 10 µg/ml)
binding result [2]: no binding (tested: 10 µg/ml)
B1: Clone 19 anti-PD-1 antibody (antibody, IgG1, V domains shown)
VH: QVQLQQSGAELVKPGASVKMSCKAFGYTFTTYPIEWMKQNHGKSLEWIGNFHPYNDDTKYNEKFKGKAKLTVEKSSTTVYLELSRLTSDDSAVYYCARENYGSHGGFVYWGQGTLVTV
VL: ENVLTQSPAIMSASPGEKVTMTCRASSSVISSYLHWYQQKSGASPKLWIYSTSNLASGVPDRFSGSGSGTSYSLTISSVEAEDAATYYCQQYNGYPLTFGAGTKLEIK
notes: The printed VH ends at ...TV

binding result [3]: binds
B2: Clone 2 anti-PD-1 antibody (antibody, V domains shown)
VH: QVQLQQPGAELVKPGASVKLSCKASGYTFTTYYLYWVRQRPGQGLEWIGGINPSNGGTNFNEKFKSKATLTVDKSSSTAYMQLNSLTSEDSAVYYCTRRDYRYDRGFDYWGQGTSVTV
VL: DIVLTQSPASLAVSLGQRATISCRASKSVSTSGFNYIHWYQQKPGQPPKLLIYLASNLESGVPARFSGSGSGTDFTLNIHPVEDEDAATYYCQHSRELPLTFGAGTKLEIK
notes: The printed VH ends at ...TV
